For assay [1], the system named is GFP-14-3-3β and its binding proteins. Briefly: GFP-14-3-3β co-IP with LC-MS/MS label-free quantification, untreated versus PP1c-treated. More on the design: species or system human. Particulars: label-free quantification. The protocol:
(§1) HeLa Kyoto cells expressing transiently transfected pEGFP(C1)-14-3-3β or pEGFP(C1) control plasmid, were incubated with 20 nM Calyculin A (# 9902 S, Cell Signaling Technology) for 12 min. Cells were washed twice on ice with cold PBS and after addition of 500 µL lysis buffer (100 mM NaCl, 10 mM Tris, 0.1% IGEPAL, 1 mM EDTA, 1 mM EGTA, 20 nM Calyculin A, 1x cOmplete Mini protease inhibitor cocktail (Sigma), 1 mM DTT, 1 mM MnCl2) cells were scraped from plates, lysed by 10 pushes through an injection needle (21 G, BD) and the insoluble fraction was pelleted by centrifugation (10 min, 10^4 rcf, 4 °C). Supernatants were then subjected to incubation with 1 µM recombinant phosphatase or buffer for 1 h at 30 °C. Next, we subjected samples to immunoprecipitation using α-GFP nanobodies covalently coupled to agarose beads (2 h, 4 °C, obtained from the EMBL PEPcore Core Facility). Beads were then washed three times with lysis buffer and samples were eluted in 1x LDS sample buffer (Thermo Fisher Scientific) by heating to 70 °C for 10 min.
(§2) The samples were then reduced with 25 mM dithiothreitol (10 min at 70 °C) and alkylated with 55 mM chloroacetamide (room temperature, 30 min, in the dark). Proteins were run on a precast 4–12% NuPAGE gel (ThermoFisher Scientific) for about 1 cm to concentrate the sample prior to in-gel tryptic digestion, which was performed according to the standard procedures. The peptides obtained were dried to completeness and resuspended in 12 µL of buffer A (0.1% FA), and 5 µL of sample were injected per MS measurement. The experiment was carried out in three independent replicates.
(§3) The samples were analyzed by LC-MS/MS on a Dionex Ultimate 3000 nano-HPLC coupled online to a Fusion Lumos Tribrid mass spectrometer (Thermo Fisher Scientific). Peptides were delivered to a trap column (75 µm × 2 cm, packed in-house with 5 µm C18 resin; Reprosil PUR AQ, Dr. Maisch) and washed using 0.1% FA at a flow rate of 5 µL/min for 10 min. Subsequently, peptides were transferred to an analytical column (75 µm × 45 cm, packed in-house with 3 µm C18 resin; Reprosil Gold) applying a flow rate of 300 nL/min and separated using a 60 min linear gradient from 4% to 32% LC solvent B (0.1% FA, 5% DMSO in ACN) in LC solvent A (0.1% FA in 5% DMSO). The eluate from the analytical column was sprayed via a stainless steel emitter (Thermo Fisher Scientific) at a source voltage of 2.1 kV into the mass spectrometer. The transfer capillary was heated to 275 °C. The Fusion Lumos was operated in positive ionization mode and data-dependent acquisition (DDA), automatically switching between MS1 and MS2 spectrum acquisition. Full scan MS1 spectra were recorded in the Orbitrap from 360 to 1300 m/z at a resolution of 60k (automatic gain control (AGC) target value of 4e5 charges, maximum injection time (maxIT) of 50 ms). Up to 20 peptide precursors were isolated (isolation window, 1.7 m/z; maximum injection time, 25 ms; and AGC value, 1e5), fragmented by high-energy collision-induced dissociation (HCD) using 30% normalized collision energy (NCE), and analyzed at a resolution of 15k in the Orbitrap. Precursor ions that were singly charged, unassigned, or with charge states >6+ were excluded. The dynamic exclusion duration of fragmented precursor ions was 20 s.
(§4) Peptide and protein identification and LFQ were performed using MaxQuant software (version 1.6.1.0)[64] by searching the data against all canonical protein sequences as annotated in the Swissprot reference database (human proteins only, 20193 entries, downloaded 22 March 2016, internally annotated with PFAM domains) using the embedded search engine Andromeda[65]. The MaxQuant search was performed using two variable modifications; oxidation of methionine and N-terminal protein acetylation. Carbamidomethylation on cysteines was specified as a fixed modification. Trypsin (Trypsin/P) was specified as the proteolytic enzyme with up to two allowed missed cleavage sites.

The subject of another assay is GFP-14-3-3β. Description: GFP-14-3-3β co-IP with LC-MS/MS, untreated GFP-14-3-3β versus GFP control (14-3-3 interactome). The class given is binding, human. Particulars: label-free quantification. On the procedure:
as §1, §2, §3, §4

B1: GNL3 (protein, UniProt Q9BVP2 1-549, looked up)
Guanine nucleotide-binding …: MKRPKLKKASKRMTCHKRYKIQKKVREHHRKLRKEAKKRGHKKPRKDPGVPNSAPFKEALLREAELRKQRLEELKQQQKLDRQKELEKKRKLETNPDIKPSNVEPMEKEFGLCKTENKAKSGKQNSKKLYCQELKKVIEASDVVLEVLDARDPLGCRCPQVEEAIVQSGQKKLVLILNKSDLVPKENLESWLNYLKKELPTVVFRASTKPKDKGKITKRVKAKKNAAPFRSEVCFGKEGLWKLLGGFQETCSKAIRVGVIGFPNVGKSSIINSLKQEQMCNVGVSMGLTRSMQVVPLDKQITIIDSPSFIVSPLNSSSALALRSPASIEVVKPMEAASAILSQADARQVVLKYTVPGYRNSLEFFTVLAQRRGMHQKGGIPNVEGAAKLLWSEWTGASLAYYCHPPTSWTPPPYFNESIVVDMKSGFNLEELEKNNAQSIRAIKGPHLANSILFQSSGLTNGIIEEKDIHEELPKRKERKQEEREDDKDSDQETVDEEVDENSSGMFAAEETGEALSEETTAGEQSTRSFILDKIIEEDDAYDFSTDYV
As for B1, the “Difference (log2), PP1 vs untreated” value in assay [1] (PP1 vs untreated) is on record as 1.1838 log2. In addition, the “Difference (log2), untreated vs GFP” value in the assay with GFP-14-3-3β (untreated vs GFP) is reported as 2.229 log2.

B2: NCBP1 (protein, UniProt Q09161 1-790, looked up)
Nuclear cap-binding protein …: MSRRRHSDENDGGQPHKRRKTSDANETEDHLESLICKVGEKSACSLESNLEGLAGVLEADLPNYKSKILRLLCTVARLLPEKLTIYTTLVGLLNARNYNFGGEFVEAMIRQLKESLKANNYNEAVYLVRFLSDLVNCHVIAAPSMVAMFENFVSVTQEEDVPQVRRDWYVYAFLSSLPWVGKELYEKKDAEMDRIFANTESYLKRRQKTHVPMLQVWTADKPHPQEEYLDCLWAQIQKLKKDRWQERHILRPYLAFDSILCEALQHNLPPFTPPPHTEDSVYPMPRVIFRMFDYTDDPEGPVMPGSHSVERFVIEENLHCIIKSHWKERKTCAAQLVSYPGKNKIPLNYHIVEVIFAELFQLPAPPHIDVMYTTLLIELCKLQPGSLPQVLAQATEMLYMRLDTMNTTCVDRFINWFSHHLSNFQFRWSWEDWSDCLSQDPESPKPKFVREVLEKCMRLSYHQRILDIVPPTFSALCPANPTCIYKYGDESSNSLPGHSVALCLAVAFKSKATNDEIFSILKDVPNPNQDDDDDEGFSFNPLKIEVFVQTLLHLAAKSFSHSFSALAKFHEVFKTLAESDEGKLHVLRVMFEVWRNHPQMIAVLVDKMIRTQIVDCAAVANWIFSSELSRDFTRLFVWEILHSTIRKMNKHVLKIQKELEEAKEKLARQHKRRSDDDDRSSDRKDGVLEEQIERLQEKVESAQSEQKNLFLVIFQRFIMILTEHLVRCETDGTSVLTPWYKNCIERLQQIFLQHHQIIQQYMVTLENLLFTAELDPHILAVFQQFCALQA
As to B2, the “Difference (log2), PP1 vs untreated” value in assay [1] (PP1 vs untreated) was determined as 1.197 log2. In addition, the “Difference (log2), untreated vs GFP” value in the assay on GFP-14-3-3β (untreated vs GFP) is listed as -0.001907 log2.

B3: FAM83B (protein, UniProt Q5T0W9 1-1011, looked up)
Protein FAM83B: METSSMLSSLNDECKSDNYIEPHYKEWYRVAIDILIEHGLEAYQEFLVQERVSDFLAEEEINYILKNVQKVAQSTAHGTDDSCDDTLSSGTYWPVESDVEAPNLDLGWPYVMPGLLGGTHIDLLFHPPRAHLLTIKETIRKMIKEARKVIALVMDIFTDVDIFKEIVEASTRGVSVYILLDESNFNHFLNMTEKQGCSVQRLRNIRVRTVKGQDYLSKTGAKFHGKMEQKFLLVDCQKVMYGSYSYMWSFEKAHLSMVQIITGQLVESFDEEFRTLYARSCVPSSFAQEESARVKHGKALWENGTYQHSVSSLASVSSQRNLFGRQDKIHKLDSSYFKNRGIYTLNEHDKYNIRSHGYKPHFVPNFNGPNAIRQFQPNQINENWKRHSYAGEQPETVPYLLLNRALNRTNNPPGNWKKPSDSLSVASSSREGYVSHHNTPAQSFANRLAQRKTTNLADRNSNVRRSFNGTDNHIRFLQQRMPTLEHTTKSFLRNWRIESYLNDHSEATPDSNGSALGDRFEGYDNPENLKANALYTHSRLRSSLVFKPTLPEQKEVNSCTTGSSNSTIIGSQGSETPKEVPDTPTNVQHLTDKPLPESIPKLPLQSEAPKMHTLQVPENHSVALNQTTNGHTESNNYIYKTLGVNKQTENLKNQQTENLLKRRSFPLFDNSKANLDPGNSKHYVYSTLTRNRVRQPEKPKEDLLKSSKSMHNVTHNLEEDEEEVTKRNSPSGTTTKSVSIAALLDVNKEESNKELASKKEVKGSPSFLKKGSQKLRSLLSLTPDKKENLSKNKAPAFYRLCSSSDTLVSEGEENQKPKKSDTKVDSSPRRKHSSSSNSQGSIHKSKEDVTVSPSQEINAPPDENKRTPSPGPVESKFLERAGDASAPRFNTEQIQYRDSREINAVVTPERRPTSSPRPTSSELLRSHSTDRRVYSRFEPFCKIESSIQPTSNMPNTSINRPEIKSATMGNSYGRSSPLLNYNTGVYRSYQPNENKFRGFMQKFGNFIHKNK
Turning to B3, the “Difference (log2), PP1 vs untreated” value in assay [1] (PP1 vs untreated) turned out to be 1.224 log2. In addition, in the assay with GFP-14-3-3β (untreated vs GFP), the “Difference (log2), untreated vs GFP” value is recorded as -0.8224 log2.

B4: RBM3 (protein, UniProt P98179 1-157, looked up)
RNA-binding protein 3: MSSEEGKLFVGGLNFNTDEQALEDHFSSFGPISEVVVVKDRETQRSRGFGFITFTNPEHASVAMRAMNGESLDGRQIRVDHAGKSARGTRGGGFGAHGRGRSYSRGGGDQGYGSGRYYDSRPGGYGYGYGRSRDYNGRNQGGYDRYSGGNYRDNYDN
B4: the “Difference (log2), PP1 vs untreated” value in assay [1] (PP1 vs untreated) worked out at 1.211 log2. The “Difference (log2), untreated vs GFP” value with GFP-14-3-3β (untreated vs GFP) is recorded as 0.8571 log2.

B5: ERLIN1 (protein, UniProt O75477 1-348, looked up)
Erlin-1: MNMTQARVLVAAVVGLVAVLLYASIHKIEEGHLAVYYRGGALLTSPSGPGYHIMLPFITTFRSVQTTLQTDEVKNVPCGTSGGVMIYIDRIEVVNMLAPYAVFDIVRNYTADYDKTLIFNKIHHELNQFCSAHTLQEVYIELFDQIDENLKQALQKDLNLMAPGLTIQAVRVTKPKIPEAIRRNFELMEAEKTKLLIAAQKQKVVEKEAETERKKAVIEAEKIAQVAKIRFQQKVMEKETEKRISEIEDAAFLAREKAKADAEYYAAHKYATSNKHKLTPEYLELKKYQAIASNSKIYFGSNIPNMFVDSSCALKYSDIRTGRESSLPSKEALEPSGENVIQNKESTG
Turning to B5, the “Difference (log2), PP1 vs untreated” value in assay [1] (PP1 vs untreated) is 1.221 log2. Further, the “Difference (log2), untreated vs GFP” value in the assay on GFP-14-3-3β (untreated vs GFP) was found to be 0.5977 log2.

B6: PKP3 (protein, UniProt Q9Y446 1-797, looked up)
Plakophilin-3: MQDGNFLLSALQPEAGVCSLALPSDLQLDRRGAEGPEAERLRAARVQEQVRARLLQLGQQPRHNGAAEPEPEAETARGTSRGQYHTLQAGFSSRSQGLSGDKTSGFRPIAKPAYSPASWSSRSAVDLSCSRRLSSAHNGGSAFGAAGYGGAQPTPPMPTRPVSFHERGGVGSRADYDTLSLRSLRLGPGGLDDRYSLVSEQLEPAATSTYRAFAYERQASSSSSRAGGLDWPEATEVSPSRTIRAPAVRTLQRFQSSHRSRGVGGAVPGAVLEPVARAPSVRSLSLSLADSGHLPDVHGFNSYGSHRTLQRLSSGFDDIDLPSAVKYLMASDPNLQVLGAAYIQHKCYSDAAAKKQARSLQAVPRLVKLFNHANQEVQRHATGAMRNLIYDNADNKLALVEENGIFELLRTLREQDDELRKNVTGILWNLSSSDHLKDRLARDTLEQLTDLVLSPLSGAGGPPLIQQNASEAEIFYNATGFLRNLSSASQATRQKMRECHGLVDALVTSINHALDAGKCEDKSVENAVCVLRNLSYRLYDEMPPSALQRLEGRGRRDLAGAPPGEVVGCFTPQSRRLRELPLAADALTFAEVSKDPKGLEWLWSPQIVGLYNRLLQRCELNRHTTEAAAGALQNITAGDRRWAGVLSRLALEQERILNPLLDRVRTADHHQLRSLTGLIRNLSRNARNKDEMSTKVVSHLIEKLPGSVGEKSPPAEVLVNIIAVLNNLVVASPIAARDLLYFDGLRKLIFIKKKRDSPDSEKSSRAASSLLANLWQYNKLHRDFRAKGYRKEDFLGP
In the case of B6, in assay [1] (log2 difference, pairwise comparison PP1 vs untreated, 3 replicates each), the “Difference (log2), PP1 vs untreated” value was found to be 2.782. For the same molecule, the “Difference (log2), untreated vs GFP” value in the assay with GFP-14-3-3β (log2 difference, pairwise comparison untreated vs GFP, 3 replicates each) is recorded as -1.082.

The values are drawn from paper PMC7367873, “Dissecting the sequence determinants for dephosphorylation by the catalytic subunits of phosphatases PP1 and PP2A” (Nature Communications, 2020).
